These are literature values, as cited in US20190010499.

pKd: −log10 of the molar value.

This data set relates to IL-6. To be noted: binding constant used for modeling; measurement method not stated; nucleic acid type not stated; cited from earlier work.

For Anti-IL-6 aptamer #1 (SL1025), the pKd was 9.63. For Anti-IL-6 aptamer #2 (SL1032), the pKd is 8.80.
